# In patent US20210253725A1 (BIONTECH, published 2021):
# T1: CD27 expressed on the cell surface (HT1080_CD27 cells) (human, UniProt P26842 20-260)
# T1 sequence (looked up): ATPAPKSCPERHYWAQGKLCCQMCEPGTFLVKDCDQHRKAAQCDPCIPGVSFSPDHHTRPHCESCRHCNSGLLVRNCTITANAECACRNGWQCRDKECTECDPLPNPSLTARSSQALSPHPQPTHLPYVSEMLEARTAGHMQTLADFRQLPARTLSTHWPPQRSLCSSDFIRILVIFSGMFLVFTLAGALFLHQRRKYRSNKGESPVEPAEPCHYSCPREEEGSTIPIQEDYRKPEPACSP
# T2: CD27 protein (His-tagged, Sino Biological Inc. 10039-H08B1) (human, UniProt P26842 20-192)
# T2 construct: bought; coated onto ELISA plates; also called human CD27; recombinant protein; not shown: His tag
# T2 sequence (looked up): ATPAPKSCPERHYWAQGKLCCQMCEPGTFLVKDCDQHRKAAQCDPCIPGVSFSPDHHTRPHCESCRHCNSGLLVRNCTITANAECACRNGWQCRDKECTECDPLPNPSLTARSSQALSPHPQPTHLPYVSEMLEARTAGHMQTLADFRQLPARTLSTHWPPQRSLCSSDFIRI
# Legend:
# [1] = molecular target: T1, CD27 expressed on the cell surface …; experiment: cell-based or functional assay
# [2] = molecular target: T2, CD27 protein (His-tagged, Sino …); experiment: ELISA on coated His-tagged CD27
# [3] = molecular target: T1, CD27 expressed on the cell surface …; experiment: cellular binding assay, HT1080_CD27 cells
# Further: test concentration or dose not given here.
"IL-8, cross-linked by F(ab')2 fragment [abs. corr.] [1]",IL-8 [abs. corr.] [1],ELISA [abs. corr.] [2],Cellular binding assay [RFU] [3],Binder
1.59 abs. corr.,0.253 abs. corr.,3.31 abs. corr.,299 RFU,"P018.S.03.A.F04 (antibody, V domains shown, V regions on human Ig constant parts; also called AB27_55) VH: QSVEESGGRLVTPGTPLTLTCTVSGFSLSSYAMGWVRQAPGKGLQWIGILYRNDAASYANWAKGRFTISKTSTTVDLTMPSLTTEDTATYFCVRGYVNDGYYNLWGQGTLVTVSS VL: AYDMTQTPASVEVAVGGTVTIKCQASESIGYRLAWYQQKPGQPPKLLIFDASDLASGVPSRFKGSGSGKHFTLTISGVQSADAATYYCQQDYSYSITDNCFGGGTEVVVS"
1.22 abs. corr.,0.436 abs. corr.,3.3 abs. corr.,335 RFU,"P018.S.01.A.E03 (antibody, V domains shown, V regions on human Ig constant parts; also called AB27_15) VH: QSVEESGGRLVTPGTPLTLTCTVSGFSLSSYAMGWVRQAPGKGLQWIGILYRNDAASYANWAKGRFTISKTSTTVDLTMPSLTTEDTATYFCVRGYVNDGYYNLWGQGTLVTVSS VL: AYDMTQTPASVEVAVGGTVTIKCQASESIGYRLAWYQQKSGQPPKLLIFDASDLASGVPSRFKGSGSGKHFTLTISGVQSADAATYYCQQDYSYSIIDNSFGGGTEVVVK"
2.54 abs. corr.,0.257 abs. corr.,3.3 abs. corr.,227 RFU,"P018.S.10.A.E01 (antibody, V domains shown, V regions on human Ig constant parts; also called AB27_175) VH: QEQLVESGGGLVQPEGSLTLTCTATGIDFSTNYRSCWVRQAPGKGLEWIACIDTDDSDSTYYASWAKGRFTISKTSSTTVTLQMTSLTAADTATYFCTRAYTTSDYAWSFYLWGPGTLVTVSS VL: DLVMTQTPASVEAAVGGTVTIKCQTSQSISKFLNWYQQTPGQPPKLLIYRASTLESGVPSRFEGSGSGTEFTLTISDLESADAATYYCQCTYGGTSGSVWAFGGGTEVVVK"
1.7 abs. corr.,0.06 abs. corr.,3.3 abs. corr.,387 RFU,"P018.S.01.A.B03 (antibody, V domains shown, V regions on human Ig constant parts; also called AB27_4) VH: QSLEESGGRLVTPGTPLTLTCTVSGFSLSSNAMSWVRQAPGEGLEWIGTIYTHGSSYYATWAKGRFTISKTSSTTVDLKMTSLTTEDTATYFCAGWAGGLSLWGPGTLVTVSS VL: DVVMTQTPASVSEPVGGTVTIKCQASEDIDNALAWYQQKPGQAPKILIYSASTLPSGVPSRFKGSGSGTQFTLTISDLESADAATYYCQSAYGGTYGDGFGGGTEVVVK"
2.54 abs. corr.,0.3 abs. corr.,3.3 abs. corr.,317 RFU,"P018.S.01.A.H02 (antibody, V domains shown, V regions on human Ig constant parts; also called AB27_25) VH: QSVEESGGRLVTPGTPLTLTCTASGFSLSSYHMQWVRQAPGKGLEWIGIIYAGSGNTWYASWAKGRFTISKTSTTVDLKITSPTTEDTAAYFCARQPGGDASDTQLDLWGQGTLVTVSS VL: AAVLTQTASPVSAAVGGTVTINCQSSQSVFDHNQLSWFQHKPGQSPKLLIYRASTLASGVPSRFKGSGSGTQFTLTISDVQSDDAATYYCLGGYSSSSDTVFGGGTEVVVK"
2.02 abs. corr.,0.735 abs. corr.,3.13 abs. corr.,380 RFU,"P018.S.07.A.C02 (antibody, V domains shown, V regions on human Ig constant parts; also called AB27_119) VH: QSVEESGGRLVTPGTPLTLTCTASGFSLSSYHMCWVRQAPGKGLEWIGIIYAGSGNTWYASWAKGRFTISKTSTTVDLKITSPTTEDTATYFCARQPGGGASDTQLDLWGQGTLVTVSS VL: AAVLTQTPSPVSAAVGGTVTINCQSSQSVFDNNQLSWFQHKPGQSPKLLIYRASTLASGVPSRFKGSGSGTQFTLTISDLESDDAATYYCLGGYSSSSDTVFGGGTEVVVE"
1.18 abs. corr.,0.28 abs. corr.,3.39 abs. corr.,395 RFU,"P018.S.10.A.C06 (antibody, V domains shown, V regions on human Ig constant parts; also called AB27_174) VH: QSLEESGGRLVTPGTPLTLTCTVSGIDLNNNAMTWVRQAPGEGLEWIGIISTADTTTYASWTKGRFTISKTSTTVDLKITSPTTEDTATYFCARAAYFSYGYFNLWGQGTLVTVSS VL: DIVMTQTPASVEAAVGGTVTIKCQASQNIGNALAWYQQKPGQPPKLLIYGASTLASGVPSRFKGSGSGTEFTLTISDLESADATTYFCQSYVYSDGNVFGGGTEVVVK"
1.22 abs. corr.,0.582 abs. corr.,3.3 abs. corr.,357 RFU,"P018.S.06.A.E02 (antibody, V domains shown, V regions on human Ig constant parts; also called AB27_105) VH: QSLEESGGRLVTPGTPLTLTCTVSGIDLNNNAMTWVRQAPGEGLEWIGIISTADTTSYASWTKGRFTISKTSTTVDLKITSPTTEDTATYFCARAAYFSYGYFNLWGQGTLVTVSS VL: DIVMTQTPASVEAAVGGTVTIKCQASQNIGNALAWYQQKSGQPPKLLIYGASTLASGVPSRFKGSGSGTEFTLTISDLESADATTYFCQSYVYSDGNVFGGGTEVVVK"
2.48 abs. corr.,0.598 abs. corr.,3.32 abs. corr.,315 RFU,"P018.S.08.A.G02 (antibody, V domains shown, V regions on human Ig constant parts; also called AB27_141) VH: QSVEESGGRLVTPGTPLTLTCTVSGFSLSTYAMSWVRQAPGKGLEWIGMNTRSGIIYYASWAKGRFTISKTSTTVHLKITSPTTEDTATYFCARDLYADVSGYYLGLWGPGTLVTVSS VL: AQVLTQTPSSVSAAVGGTVTINCQASQSLYNNKNLAWYQQKPGQPPKLLIYYASTLASGVSSRFKGSGSGTQFTLTISDLESDDAATYYCQGEFICSSADCVVFGGGTAVVVK"
1.37 abs. corr.,0.226 abs. corr.,3.3 abs. corr.,369 RFU,"P018.S.05.A.A04 (antibody, V domains shown, V regions on human Ig constant parts; also called AB27_81) VH: QEQLVESGGDLVKPGASLTLTCTASGIDFSSSYYMSWVRQAPGKGLEWIACIDTVDDYTYYASWAKGRFTISKTSSTTVSLQMTSLTAADTATYFCARERIDNNTDCFDLWGPGTLVTISS VL: AQVLTQTPSPVSAAVGGTVTISCQSSQSVVSKNRLAWYQQKPGQPPKLLIWLASKLASGVPSRFRGSGSGTQFTLTISGVQSDDAATYYCQGYYSGAIYAFGGGTDVVVK"
1.34 abs. corr.,0.267 abs. corr.,3.49 abs. corr.,335 RFU,"P018.S.10.A.F05 (antibody, V domains shown, V regions on human Ig constant parts; also called AB27_181) VH: QSVEESGGRLVTPGTPLTLTCTVSGFSLSGYHMCWVRQAPGKGLQYIGIIGSNGVTYYASWAKSRSTITRNTNENTVTLKMTSLTTEDTATYFCARSSGWGARFNLWGQGTLVTVSS VL: AQVLTQTPASVSAAVGGTVTINCQASQSVYNDNELSWYQQKPGQPPKLLIYKASTLTSGVPLRFSGSGSGTQFTLTISDVQSDDAATYYCLGGGSTPSDSTFGGGTEVVVK"
1.12 abs. corr.,-0.13 abs. corr.,3.18 abs. corr.,414 RFU,"P018.S.10.A.A06 (antibody, V domains shown, V regions on human Ig constant parts; also called AB27_165) VH: QSVEESGGRLVTPGTPLTLTCTVSGFSLSGYHMCWVRQAPGKGLQYIGIIGSNGNTYYASWAKSRSTITRNTNENTVTLKMTSLTTEDTATYFCARSSGWGARFNLWGQGTLVTVSS VL: AQVLTQTPSSVSAAVGGTVTINCQASQSIYNDNELSWYQQKPGQPPKLLIYKASTLASGVPLRFSGSGSGTQFTLTISDVQSDVAATYYCLGGGMTPSDTTFGGGTEVVVK"
1.3 abs. corr.,-0.18 abs. corr.,3.31 abs. corr.,386 RFU,"P018.S.10.A.G03 (antibody, V domains shown, V regions on human Ig constant parts; also called AB27_182) VH: QSVEESGGRLVTPGTPLTLTCTVSGFTISSYHMCWVRQAPGKGLQYIGIIGSNGNTYYASWAKSRSTITRNTNENTVTLKMTSLTTEDTATYFCARSSGWGARFNLWGQGTLVTVSS VL: AQVLTQTPSSVSAAVGGTVTINCQASQSVYNDNELSWYQQKPGQPPKLLIYKASTLTSGVPLRFSGSGSGTQFTLTISDVQSDDAATYYCLGGGSTPSDSTFGGGTEVVVK"
1.53 abs. corr.,0.212 abs. corr.,3.3 abs. corr.,334 RFU,"P018.S.05.A.A02 (antibody, V domains shown, V regions on human Ig constant parts; also called AB27_80) VH: QSLEESGGRLVTPGTPLTLICTASGIDLSSYGMTWVRQAPGKGLEWIGIISTIGDTYYASWVKGRFTISKTSTTVDLKITSPTTEDTATYFCARYTNSGYAMMYYFNLWGQGTLVTVSS VL: DIVMTQTPASVEAAVGGTVTIKCQASQNIVNALAWYQQKLGQPPKLLIYVASYLASGVPSRFKGSGSGTEFTLTISDLESVDAATYYCQSYYYSSGTSYGQNAFGGGTEVVVK"
1.05 abs. corr.,-0.011 abs. corr.,3.31 abs. corr.,329 RFU,"P018.S.10.A.F01 (antibody, V domains shown, V regions on human Ig constant parts; also called AB27_179) VH: QSLEESGGGLVQPEGSLTLTCTASGFSFSSSDYMCWVRQAPGKGLEWIACMYTGSVEHTYYANWAEGRFTISKTSSTTVTLQMTSLTAADTATYFCARSPTGYPDYGYGGFSLWGPGTLVTVSS VL: ALVMTQTPSSVSAAVGGTVTINCQASQNIYSNLAWYQQKSGQRPKLLIHGASNLESGVPSRFKGSGSGTEFTLTISDLESADAATYYCQSAYYSGGPDMAFGGGTEVVVK"
1.73 abs. corr.,1.23 abs. corr.,3.54 abs. corr.,307 RFU,"P018.S.09.A.E06 (antibody, V domains shown, V regions on human Ig constant parts; also called AB27_156) VH: QSVEESGGRLVTPGTPLTLTCTVSGFSLSSYGMIWVRQAPGKGLEWIAWSSSNDNTYYASWAKGRFTISKTSSTTVDLKMTSLTTEDTATYFCARNGVYSTGNYFDLWGQGTLVTVSS VL: AQVLTQTPSPVSAAVGGTVTINCQASQSVYNNNNLAWYQQKPGQPPKFLIYAASRLPSGVPPRFSGSGSGTQFTLTISDVQSDDAATYYCQGEFDCDSADCFAFGGGTEVVVK"
